{"source": "patent US7906628B2", "about": "“Targeting proteins to deliver therapeutic or diagnostic reagents” (The Board of Regents, The University of Texas System, priority 2002, dated 2011)", "key": {"HUVECs": {"tested_on": "HUVECs", "experiment": "Migration assay (VEGF-induced chemotaxis, Boyden chamber)", "format": "cell-based, human", "conditions": "supernatant from plasmid-transfected 293T cells; 10 ng/ml VEGF as chemotactant; FIGS. 2E-2H", "experimental": "After trypsinizing, washing, and diluting cells in M199 medium containing 0.5% FBS, 10,000 cells were seeded on the upper chamber wells, together with supernatant collected from 293T transfected with different plasmid (endostatin, endostatin-CD, and CD). M199 medium containing 2% FBS plus 10 ng/ml VEGF was placed in the lower chamber as a chemotactant. The cell-containing compartments were separated from the chemotactant with polycarbonate filter of 8 um pore size. The chamber was incubated at 37° C. for 6-8 hr. After discarding the non-migrated cells and washing the upper wells with PBS, the filters were scraped with a plastic blade, fixed in 4% formaldehyde in PBS, stained with DAPI fluorescent stain and placed on a glass slide. By using a fluorescent high power field, several independent homogenous images were recorded. Five fields were viewed, and […] were counted and averaged. All assays were performed in triplicate."}, "[1]": {"tested_on": "human umbilical endothelial cells (HUVEC)", "experiment": "Endothelial tube assay", "format": "cell-based", "conditions": "supernatant from plasmid-transfected 293T cells; FIGS. 2A-2D", "experimental": "Endothelial tube assay: Matrigel (Collaborative Biomolecules, Bedford, Mass.) was added (50 μl) to each well of a 96-well plate and allowed to polymerize. A suspension of 5,000 human umbilical endothelial cells (HUVEC) in EGM-2 medium without antibiotic was passed into each well coated with matrigel. The cells were treated with supernatants collected from different plasmid (endostatin, endostatin-CD, and CD) transfected 293T cells. All assays were performed in triplicate. Cell were incubated for 12-24 hr at 37° C. and viewed using a microscope. The cells were then photographed. Five fields were viewed, and tubes were counted and averaged."}}}
{"molecule": "endostatin: endogenous angiogenesis inhibitor, 18 KD, used as comparator (protein, listed as Homo sapiens) IVNLKDELLFPSWEALFSGSEGPLKPGARIFSFDGKDVLRHPTRPQKSVWHGSDPNGRRLTESYCETWRTEAPSATGQASSLLGGRLLGQSAASSHHAYIVL", "values": [{"measurement": "HUVEC cell migration", "setting": "HUVECs", "result": "inhibitory effect"}, {"measurement": "HUVEC cell tube formation", "setting": "[1]", "result": "inhibitory effect"}]}
